Measured values: US20260234242A1 (HAINAN SIMCERE ZAIMING PHARMACEUTICAL, published 2026)
Substitutions are numbered along the chain they refer to. Values belong to the binder of their own block, whether it stands above or below them.

Columns and labels:
[1] = target: T1, his-tagged human CDH6 extracellular region protein (hCDH6 ECD-his) (human, UniProt P55285 19-615); assay: ELISA, coated antigen
T1 construct: also called Human CDH6-his; hCDH6-his; not shown: his tag
T1 sequence: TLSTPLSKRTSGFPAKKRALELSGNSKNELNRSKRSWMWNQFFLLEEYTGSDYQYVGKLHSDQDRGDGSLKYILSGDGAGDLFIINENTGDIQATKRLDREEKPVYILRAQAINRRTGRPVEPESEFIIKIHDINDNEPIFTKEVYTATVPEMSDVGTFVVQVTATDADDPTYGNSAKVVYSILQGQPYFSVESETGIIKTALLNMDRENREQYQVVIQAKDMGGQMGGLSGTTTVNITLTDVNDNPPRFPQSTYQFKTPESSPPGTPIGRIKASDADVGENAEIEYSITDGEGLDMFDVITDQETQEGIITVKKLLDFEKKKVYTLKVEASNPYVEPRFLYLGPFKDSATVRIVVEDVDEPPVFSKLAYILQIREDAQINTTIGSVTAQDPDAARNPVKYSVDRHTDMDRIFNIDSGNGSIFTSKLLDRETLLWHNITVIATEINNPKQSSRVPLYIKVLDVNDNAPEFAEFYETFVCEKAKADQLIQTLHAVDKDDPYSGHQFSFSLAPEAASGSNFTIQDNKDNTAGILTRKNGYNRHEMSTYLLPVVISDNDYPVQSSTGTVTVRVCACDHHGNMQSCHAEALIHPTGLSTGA
Experimental: Human CDH6 protein (hCDH6 ECD-his, conventionally synthesized), monkey CDH6 protein (cynoCDH6 ECD-his, conventionally synthesized; the cynoCDH6 ECD sequence was derived from Uniprot #A0A2K5TW62 (19-615)), and murine CDH6 protein (mCDH6 ECD-his, conventionally synthesized; the mCDH6 ECD sequence was derived from Uniprot #P97326 (19-615)) were diluted with PBS to a final concentration of 1 μg/mL, and added to a 96-well ELISA plate at 100 μL/well. The plate was incubated at 4° C. overnight. The next day, the plate was washed 3 times with a plate washing solution (PBS+0.01% (v/v) Tween 20), and a blocking buffer (PBS+0.01% (v/v) Tween 20+2% (w/w) BSA) was added for blocking at room temperature for 2 h. The blocking buffer was discarded, and the plate was washed 3 times. The chimeric antibodies were diluted with 1% BSA+PBS (purchased from Cytiva, Cat. No. SH30264.01) and added to the 96-well plate at 50 μL/well. After incubation at 37° C. for 2 h, the plate was washed 3 times with a plate washing solution. […] The plate was incubated at 37° C. for 1 h and then washed 5 times with a plate washing solution. A TMB substrate (purchased from Seracare, Cat. No. 5120-0077) was added at 50 μL/well and incubated at room temperature for 10 min, then a stop solution (1.0 N HCl) was added at 50 μL/well. OD450 nm values were read using a microplate reader (Biotek). Analysis was performed by the GraphPad Prism software, data were fitted, and EC50 values were calculated. The chimeric antibodies tested all had strong binding to the human CDH6 protein, the monkey CDH6 protein, and the murine CDH6 protein.
(§1) According to the above sequences, heavy chain (HC) and light chain (LC) plasmids were constructed (the nucleic acid sequences encoding the VH and VL of the antibodies were recombined into an expression vector carrying a signal peptide (SEQ ID NO: 132, […]) and a heavy chain constant region/light chain constant region sequence to obtain recombinant plasmids expressing VH-CH1-Fc/VL-CL).

[2] = target: T2, human CDH6 on tumor cells (OVCAR3 cells, PA-1 cells) (human, UniProt P55285 54-790); assay: FACS, OVCAR3 cells
T2 sequence: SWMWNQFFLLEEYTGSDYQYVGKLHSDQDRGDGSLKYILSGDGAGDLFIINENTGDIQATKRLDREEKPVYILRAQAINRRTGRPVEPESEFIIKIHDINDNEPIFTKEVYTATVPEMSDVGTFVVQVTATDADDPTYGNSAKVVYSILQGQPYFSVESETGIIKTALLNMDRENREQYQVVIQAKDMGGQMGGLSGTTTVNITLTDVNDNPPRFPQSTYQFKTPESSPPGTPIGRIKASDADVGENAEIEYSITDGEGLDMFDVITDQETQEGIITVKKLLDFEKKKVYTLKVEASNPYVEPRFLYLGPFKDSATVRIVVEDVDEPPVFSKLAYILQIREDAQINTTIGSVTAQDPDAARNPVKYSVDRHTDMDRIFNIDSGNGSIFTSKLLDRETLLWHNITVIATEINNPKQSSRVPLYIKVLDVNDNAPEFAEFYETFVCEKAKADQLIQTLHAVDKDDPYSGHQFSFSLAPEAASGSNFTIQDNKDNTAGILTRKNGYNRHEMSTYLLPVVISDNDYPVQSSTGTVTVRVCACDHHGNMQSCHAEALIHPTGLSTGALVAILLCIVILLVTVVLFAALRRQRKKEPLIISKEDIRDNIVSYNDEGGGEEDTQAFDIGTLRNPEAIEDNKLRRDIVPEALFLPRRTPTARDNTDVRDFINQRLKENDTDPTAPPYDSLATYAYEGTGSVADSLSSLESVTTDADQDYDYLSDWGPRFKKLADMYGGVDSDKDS
Experimental: OVCAR3 cells with high expression of CDH6 and PA-1 cells with moderate expression of CDH6 were used to detect the binding activity of the antibodies to the cells. […] The cells were washed once with PBS, counted, resuspended to 2×10⁶ cells/mL in an FACS buffer (PBS+2% FBS), and then added to a 96-well plate at 50 μL/well. The chimeric antibodies were diluted with FACS buffer (PBS+2% FBS) and added to the 96-well plate at 50 μL/well, and the plate was incubated at 4° C. for 1 h. […] The dilution was added to the 96-well plate at 50 μL/well, and the plate was incubated at 4° C. for 1 h. After the plates were centrifuged and washed 2 times with PBS, the cells were resuspended in an FACS buffer. The mean fluorescence intensity (MFI) was measured using FACS Canton II (BD). Analysis was performed by the GraphPad Prism software, data were fitted, and EC50 values were calculated. The chimeric antibodies tested had strong binding to both OVCAR3 cells and PA-1 cells.
as §1, with “VH-CH1-Fc/VL-CL). According to the expression and purification methods in Example 2, the hCDH6-1 humanized antibodies were obtained, and the binding activity of the humanized antibodies was detected by ELISA and FACS (see 2.2 and 2.3 for the method).” for “VH-CH1-Fc/VL-CL).”

[3] = target: T1, his-tagged human CDH6 extracellular …; assay: SPR Biacore, antibody captured on Protein A
Experimental: The affinity of the antibody for the antigen was determined by a multi-cycle kinetic method using a BIAcore 8K instrument. In each cycle, the antibody to be tested was captured using a Protein A chip (purchased from GE, Cat. No. 29-1275-56), and then the antigen human CDH6 protein (hCDH6-his, conventionally synthesized) was injected. The association and dissociation processes of the antibody with the antigen protein were recorded, and finally, the chip was regenerated using Glycine pH 1.5, wherein the mobile phase was HBS-EP+ (10 mM HEPES, 150 mM NaCl, 3 mM EDTA, 0.05% surfactant P20, and 1 mM Ca), the flow rate was 30 μL/min, the association time was 240 s, the dissociation time was 300 s, the regeneration time was 30 s, the detection temperature was 25° C., and the antigen concentration was 31.25-1000 nM. The data were analyzed using Biacore 8K analysis software (version No. 2.0) based on the 1:1 binding model to fit the antibody-antigen binding kinetic parameters, including the association rate constant ka, the dissociation rate constant kd, and the equilibrium dissociation constant KD. The affinity values of the control antibody DS-H01L02 were undetectable. Antibodies not shown in the table had undetectable affinity values.
Four hCDH6-1 humanized antibodies with fewer back mutations were selected, and the affinity for human CDH6 protein was further confirmed using Biacore.

B1: hCDH6-1-H1L1 (antibody, V domains shown)
VH: EVQLVQSGAEVKKPGSSVKVSCKASGYTFSNYWMHWVRQAPGQGLEWMGDIDPSHSETHYTQKFKDRVTITVDKSTSTAYMELSSLRSEDTAVYYCARGDLGRFDYWGQGTTVTVSS
VL: DIVMTQSPDSLAVSLGERATINCRASESVSIHGTHLMHWYQQKPGQPPKLLIYAASNLESGVPDRFSGSGSETDFTLTISSLQAEDVAVYYCQQSFEDPWTFGGGTKVEIK
notes: Humanized
EC50 [1]: 0.025 nM
Max OD450 [1]: 2.8 OD450
EC50 [2]: 0.166 nM
Max MFI [2]: 14400 MFI
Kd [3]: 21.7 nM
koff [3]: 0.00456 s⁻¹
kon [3]: 210000 M⁻¹ s⁻¹

B3: hCDH6-1-H1L2 (antibody, V domains shown)
VH: B1 VH
VL: B1 VL with P44S
notes: Humanized
EC50 [1]: 0.027 nM
Max OD450 [1]: 2.75 OD450
EC50 [2]: 0.177 nM
Max MFI [2]: 14500 MFI
Kd [3]: 21.5 nM
koff [3]: 0.00422 s⁻¹
kon [3]: 196000 M⁻¹ s⁻¹

B4: hCDH6-1-H1L3 (antibody, V domains shown)
VH: B1 VH
VL: DIQMTQSPSSLSASVGDRVTITCRASESVSIHGTHLMHWYQQKPGKPPKLLIYAASNLESGVPSRFSGSGSETDFTFTISSLQPEDIATYYCQQSFEDPWTFGGGTKVEIK
notes: Humanized
EC50 [1]: 0.029 nM
Max OD450 [1]: 2.67 OD450
EC50 [2]: 0.175 nM
Max MFI [2]: 14500 MFI
Kd [3]: 18.9 nM
koff [3]: 0.00824 s⁻¹
kon [3]: 435000 M⁻¹ s⁻¹

B6: hCDH6-1-H3L2 (antibody, V domains shown)
VH: B1 VH with S30T, I70L
VL: B1 VL with P44S
notes: Humanized
EC50 [1]: 0.026 nM
Max OD450 [1]: 2.58 OD450
EC50 [2]: 0.167 nM
Max MFI [2]: 14300 MFI

Results, then the binder that gave them:

EC50 [1]: 0.031 nM
Max OD450 [1]: 2.62 OD450
EC50 [2]: 0.152 nM
Max MFI [2]: 14000 MFI
B2: hCDH6-1-H4L1 (antibody, V domains shown)
VH: B1 VH with S30T, A40R
VL: B1 VL
notes: Humanized

EC50 [1]: 0.03 nM
Max OD450 [1]: 2.71 OD450
EC50 [2]: 0.155 nM
Max MFI [2]: 14600 MFI
B5: hCDH6-1-H3L3 (antibody, V domains shown)
VH: B1 VH with S30T, I70L
VL: B4 VL
notes: Humanized

EC50 [1]: 0.029 nM
Max OD450 [1]: 2.61 OD450
EC50 [2]: 0.162 nM
Max MFI [2]: 15100 MFI
B7: hCDH6-1-H4L3 (antibody, V domains shown)
VH: B1 VH with S30T, A40R
VL: B4 VL
notes: Humanized

EC50 [1]: 0.026 nM
Max OD450 [1]: 2.55 OD450
EC50 [2]: 0.176 nM
Max MFI [2]: 15200 MFI
B8: hCDH6-1-H4L2 (antibody, V domains shown)
VH: B1 VH with S30T, A40R
VL: B1 VL with P44S
notes: Humanized
